Assay results: publication PMC5797217, “UFD-2 is an adaptor-assisted E3 ligase targeting unfolded proteins” (Nature Communications, 2018)

T1: UNC-45 full-length, His6-tagged (C. elegans, UniProt G5EG62 1-961)
T1 construct: UNC-45, C. elegans, full-length (961 residues by the printed limits of the deletion constructs); also called UNC-45-His6; wild-type, full-length protein; source: E. coli BL21-DE3-RIL, purified (NiNTA, SEC); not shown: His6, C-terminal, kept
T1 sequence (looked up): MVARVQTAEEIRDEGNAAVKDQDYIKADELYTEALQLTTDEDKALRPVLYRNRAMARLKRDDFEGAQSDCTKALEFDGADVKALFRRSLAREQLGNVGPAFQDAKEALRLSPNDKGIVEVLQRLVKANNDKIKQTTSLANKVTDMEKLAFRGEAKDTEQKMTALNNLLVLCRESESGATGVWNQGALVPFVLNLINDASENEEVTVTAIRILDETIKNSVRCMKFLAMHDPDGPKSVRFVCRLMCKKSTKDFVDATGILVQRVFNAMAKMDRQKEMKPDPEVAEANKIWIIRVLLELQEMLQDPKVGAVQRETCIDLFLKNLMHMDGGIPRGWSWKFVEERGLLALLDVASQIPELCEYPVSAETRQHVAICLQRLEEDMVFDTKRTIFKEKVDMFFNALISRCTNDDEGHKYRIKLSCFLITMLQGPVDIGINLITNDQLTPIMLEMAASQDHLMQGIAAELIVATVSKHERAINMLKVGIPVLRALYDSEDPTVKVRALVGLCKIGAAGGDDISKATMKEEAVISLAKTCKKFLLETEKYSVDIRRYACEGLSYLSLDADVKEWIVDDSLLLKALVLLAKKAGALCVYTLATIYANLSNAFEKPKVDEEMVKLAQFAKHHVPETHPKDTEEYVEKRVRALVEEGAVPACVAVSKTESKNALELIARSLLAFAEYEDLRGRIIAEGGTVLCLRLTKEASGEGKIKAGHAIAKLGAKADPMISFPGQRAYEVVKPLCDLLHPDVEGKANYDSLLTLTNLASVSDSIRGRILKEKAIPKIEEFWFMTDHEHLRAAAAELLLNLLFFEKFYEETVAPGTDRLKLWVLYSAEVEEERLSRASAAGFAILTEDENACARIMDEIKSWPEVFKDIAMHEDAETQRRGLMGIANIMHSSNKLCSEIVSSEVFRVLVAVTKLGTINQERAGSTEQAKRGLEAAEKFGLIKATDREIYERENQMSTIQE

B1: UNC-45 wild type, crystallised (crystal form UNC-45_(717)) (natural protein, C. elegans, UniProt G5EG62 1-961, looked up)
chain: MVARVQTAEEIRDEGNAAVKDQDYIKADELYTEALQLTTDEDKALRPVLYRNRAMARLKRDDFEGAQSDCTKALEFDGADVKALFRRSLAREQLGNVGPAFQDAKEALRLSPNDKGIVEVLQRLVKANNDKIKQTTSLANKVTDMEKLAFRGEAKDTEQKMTALNNLLVLCRESESGATGVWNQGALVPFVLNLINDASENEEVTVTAIRILDETIKNSVRCMKFLAMHDPDGPKSVRFVCRLMCKKSTKDFVDATGILVQRVFNAMAKMDRQKEMKPDPEVAEANKIWIIRVLLELQEMLQDPKVGAVQRETCIDLFLKNLMHMDGGIPRGWSWKFVEERGLLALLDVASQIPELCEYPVSAETRQHVAICLQRLEEDMVFDTKRTIFKEKVDMFFNALISRCTNDDEGHKYRIKLSCFLITMLQGPVDIGINLITNDQLTPIMLEMAASQDHLMQGIAAELIVATVSKHERAINMLKVGIPVLRALYDSEDPTVKVRALVGLCKIGAAGGDDISKATMKEEAVISLAKTCKKFLLETEKYSVDIRRYACEGLSYLSLDADVKEWIVDDSLLLKALVLLAKKAGALCVYTLATIYANLSNAFEKPKVDEEMVKLAQFAKHHVPETHPKDTEEYVEKRVRALVEEGAVPACVAVSKTESKNALELIARSLLAFAEYEDLRGRIIAEGGTVLCLRLTKEASGEGKIKAGHAIAKLGAKADPMISFPGQRAYEVVKPLCDLLHPDVEGKANYDSLLTLTNLASVSDSIRGRILKEKAIPKIEEFWFMTDHEHLRAAAAELLLNLLFFEKFYEETVAPGTDRLKLWVLYSAEVEEERLSRASAAGFAILTEDENACARIMDEIKSWPEVFKDIAMHEDAETQRRGLMGIANIMHSSNKLCSEIVSSEVFRVLVAVTKLGTINQERAGSTEQAKRGLEAAEKFGLIKATDREIYERENQMSTIQE
notes: UNC-45, C. elegans, wild-type full-length protein used for crystallisation
B2: C. elegans MHC-B motor domain (1-790), His6-tagged (domain or fragment, UniProt P02566 1-790, looked up)
chain: MEHEKDPGWQYLRRTREQVLEDQSKPYDSKKNVWIPDPEEGYLAGEITATKGDQVTIVTARGNEVTLKKELVQEMNPPKFEKTEDMSNLSFLNDASVLHNLRSRYAAMLIYTYSGLFCVVINPYKRLPIYTDSCARMFMGKRKTEMPPHLFAVSDEAYRNMLQDHENQSMLITGESGAGKTENTKKVICYFAAVGASQQEGGAEVDPNKKKVTLEDQIVQTNPVLEAFGNAKTVRNNNSSRFGKFIRIHFNKHGRLASCDIEHYLLEKSRVIRQAPGERCYHIFYQIYSDFRPELKKELLLDLPIKDYWFVAQAELIIDGIDDVEEFQLTDEAFDILNFSAVEKQDCYRLMSAHMHMGNMKFKQRPREEQAEPDGTDEAEKASNMYGIGCEEFLKALTKPRVKVGTEWVSKGQNCEQVNWAVGAMAKGLYSRVFNWLVKKCNLTLDQKGIDRDYFIGVLDIAGFEIFDFNSFEQLWINFVNEKLQQFFNHHMFVLEQEEYAREGIQWVFIDFGLDLQACIELIEKPLGIISMLDEECIVPKATDLTLASKLVDQHLGKHPNFEKPKPPKGKQGEAHFAMRHYAGTVRYNCLNWLEKNKDPLNDTVVSAMKQSKGNDLLVEIWQDYTTQEEAAAKAKEGGGGGKKKGKSGSFMTVSMLYRESLNNLMTMLNKTHPHFIRCIIPNEKKQSGMIDAALVLNQLTCNGVLEGIRICRKGFPNRTLHPDFVQRYAILAAKEAKSDDDKKKCAEAIMSKLVNDGSLSEEMFRIGLTKVFFKAGVLAHLEDIRDEKL
notes: Myosin heavy chain B (MHC-B, UNC-54), C. elegans muscle myosin, motor domain residues 1-790, cloned from cDNA into pACEBac1; also called myosin; MHC-B head domain; source: High Five insect cells, purified (NiNTA, Streptactin wash fractions, SEC) or co-purified with UNC-45; not shown: His6, C-terminal, kept

Tests used:
[1] = molecular target: the molecule itself; assay: crystal structure; crystal form UNC-45_(717), space group P6_(1)22, 3.8 Å; molecules form filaments in the crystal lattice
[2] = molecular target: T1, UNC-45 full-length, His6-tagged; assay: pull-down; three proteins: His6-tagged UNC-45 pre-incubated with myosin (MHC-B motor domain) 60 min 27 °C, then with Strep-UFD-2 60 min 30 °C; Strep-Tactin beads; 5 µM protein; 20 mM Tris pH 7.5, 50 mM NaCl; Coomassie; conditions: both partners purified

| Binder | binding result [1] | binding result [2] |
| --- | --- | --- |
| B1 | binds |  |
| B2 |  | binds |
